Reference: the supplement of paper PMC10567573

B1: TMEM175 (parent)
chain: SCTIIFLASIFQLAMWTTALLHQA
B2: TBX5 (parent)
chain: FHEVGTEMIITKAGRRMFPSYKVK

Variants of: B1
Assay: protein stability index of a GFP-peptide fusion (GPS, HEK-293T) (PSI 1-6); higher = more stable
Details: c terminus: a fixed tail appended
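Also: lentivirally expressed fusions sorted by FACS into six bins by GFP to DsRed ratio, PSI derived from sequencing read proportions per bin multiplied by bin number.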

| Variant | protein stability index |
| --- | --- |
| S9Y | 2.66 |
| I10A | 3.45 |
| I10C | 1.64 |
| I10D | 1.94 |
| I10G | 2.65 |
| I10H | 3.64 |
| I10K | 3.74 |
| I10M | 3.48 |
| I10N | 2.59 |
| I10P | 2.65 |
| I10Q | 2.91 |
| I10R | 2.81 |
| I10S | 2.97 |
| I10T | 3.72 |
| I10V | 3.47 |
| I10W | 2.29 |
| I10Y | 3.52 |
| F11A | 3.92 |
| F11C | 2.29 |
| F11D | 2.62 |
| F11E | 3.04 |
| F11I | 2.56 |
| F11K | 3.11 |
| F11L | 2.74 |

| Variant | protein stability index |
| --- | --- |
| F11M | 1.87 |
| F11N | 2.97 |
| F11P | 2.96 |
| F11Q | 3.1 |
| F11R | 5.97 |
| F11S | 2.19 |
| F11T | 3.38 |
| F11V | 2.09 |
| F11W | 2.6 |
| F11Y | 1.79 |
| Q12A | 3.29 |
| Q12C | 3.71 |
| Q12D | 3.29 |
| Q12E | 3.39 |
| Q12F | 2.61 |
| Q12G | 2.9 |
| Q12H | 3.19 |
| Q12I | 3.51 |
| Q12L | 3.15 |
| Q12M | 2.6 |
| Q12N | 3.72 |
| Q12P | 2.3 |
| Q12S | 2.75 |
| Q12T | 3.43 |

| Variant | protein stability index |
| --- | --- |
| Q12V | 2.25 |
| Q12Y | 1.89 |
| L13A | 2.85 |
| L13C | 2.76 |
| L13D | 2.59 |
| L13E | 2.24 |
| L13F | 3.07 |
| L13H | 3.13 |
| L13I | 2.5 |
| L13M | 2.97 |
| L13N | 3.15 |
| L13P | 2.24 |
| L13Q | 3.08 |
| L13R | 1.63 |
| L13S | 3.46 |
| L13T | 2.49 |
| L13V | 3.31 |
| L13Y | 2.81 |
| A14C | 3.07 |
| A14D | 4 |
| A14E | 1.9 |
| A14F | 2.76 |
| A14G | 3.94 |
| A14H | 3 |

| Variant | protein stability index |
| --- | --- |
| A14I | 3.4 |
| A14K | 3.08 |
| A14L | 4.29 |
| A14M | 3.19 |
| A14N | 2.62 |
| A14P | 2.29 |
| A14Q | 4.22 |
| A14R | 3.53 |
| A14S | 2.58 |
| A14T | 2.73 |
| A14W | 2.09 |
| A14Y | 4 |
| M15A | 3.24 |
| M15D | 3.28 |
| M15E | 3.53 |
| M15F | 2.73 |
| M15H | 2.49 |
| M15I | 2.79 |
| M15K | 2.96 |
| M15L | 2.53 |
| M15N | 2.51 |
| M15P | 3.25 |
| M15Q | 2.52 |
| M15R | 1.69 |

| Variant | protein stability index |
| --- | --- |
| M15S | 2.48 |
| M15T | 3.17 |
| M15V | 3.45 |
| M15W | 3.1 |
| M15Y | 2.97 |
| W16A | 3.29 |
| W16C | 3.44 |
| W16F | 1.76 |
| W16G | 2.72 |
| W16H | 1.8 |
| W16I | 3.15 |
| W16K | 2.44 |
| W16L | 2.94 |
| W16M | 3.11 |
| W16N | 3.23 |
| W16P | 2.53 |
| W16Q | 1.12 |
| W16R | 2.51 |
| W16S | 2.58 |
| W16V | 3.96 |
| W16Y | 3.76 |
| T17A | 1.59 |
| T17D | 3.83 |
| T17E | 2.36 |

| Variant | protein stability index |
| --- | --- |
| T17F | 1.74 |
| T17H | 4.62 |
| T17I | 3.54 |
| T17K | 2.94 |
| T17L | 3.31 |
| T17N | 3.8 |
| T17P | 2.64 |
| T17Q | 2.52 |
| T17R | 2.01 |
| T17S | 2.31 |
| T17V | 2.22 |
| T17W | 4 |
| T17Y | 2.83 |
| T18A | 2.23 |
| T18C | 3.17 |
| T18D | 2.18 |
| T18E | 2.78 |
| T18F | 3.03 |
| T18G | 1.6 |
| T18H | 2.85 |
| T18I | 2.16 |
| T18K | 2.31 |
| T18L | 2.73 |
| T18P | 3.36 |

| Variant | protein stability index |
| --- | --- |
| T18R | 2.09 |
| T18S | 3.06 |
| T18Y | 2.68 |
| A19D | 2.3 |
| A19E | 2.73 |
| A19F | 3.13 |
| A19H | 1.58 |
| A19I | 2.14 |
| A19K | 2.76 |
| A19L | 2.11 |
| A19M | 3.22 |
| A19P | 4.62 |
| A19R | 2.19 |
| A19T | 3.07 |
| A19V | 2.43 |
| A19W | 3.12 |
| A19Y | 2.1 |
| L20A | 3.09 |
| L20D | 3.05 |
| L20F | 2.74 |
| L20G | 1.94 |
| L20H | 3.02 |
| L20I | 3.51 |
| L20M | 3.22 |

| Variant | protein stability index |
| --- | --- |
| L20N | 3.09 |
| L20P | 1.81 |
| L20Q | 3.1 |
| L20R | 3.39 |
| L20S | 3.1 |
| L20W | 1.4 |
| L20Y | 3.22 |
| L21A | 1.45 |
| L21C | 3.36 |
| L21D | 3.61 |
| L21E | 2.55 |
| L21F | 2.81 |
| L21H | 3.3 |
| L21I | 2.71 |
| L21K | 3.7 |
| L21M | 2.73 |
| L21N | 2.05 |
| L21P | 3.35 |
| L21Q | 2.64 |
| L21R | 3.98 |
| L21S | 3.45 |
| L21T | 3.02 |
| L21V | 3.72 |
| L21Y | 3.71 |

| Variant | protein stability index |
| --- | --- |
| H22A | 3.84 |
| H22C | 3.02 |
| H22F | 2.6 |
| H22G | 3.04 |
| H22I | 4.4 |
| H22K | 3.44 |
| H22L | 1.86 |
| H22M | 2.74 |
| H22N | 2.87 |
| H22P | 3 |
| H22Q | 2.97 |
| H22R | 2.5 |
| H22T | 2.65 |
| H22V | 3.39 |
| H22W | 3.14 |
| H22Y | 2.5 |
| Q23E | 2.09 |
| Q23F | 3.89 |
| Q23G | 4.5 |
| Q23H | 2.71 |
| Q23I | 2.95 |
| Q23K | 3.26 |
| Q23M | 3.84 |
| Q23N | 4.37 |

| Variant | protein stability index |
| --- | --- |
| Q23P | 3 |
| Q23S | 3.77 |
| Q23T | 3.34 |
| Q23V | 3.24 |
| Q23W | 3.32 |
| A24C | 3.39 |
| A24D | 4.05 |
| A24E | 3.22 |
| A24F | 2.62 |
| A24H | 2.67 |
| A24I | 3.19 |
| A24K | 2.88 |
| A24L | 3.17 |
| A24M | 1.89 |
| A24N | 2.45 |
| A24Q | 2.56 |
| A24R | 2.43 |
| A24S | 1.55 |
| A24T | 3.01 |
| A24V | 1.5 |
| A24W | 3.03 |
| A24Y | 2.61 |

Variants of: B2
Assay: as above
Details: c terminus: a fixed tail appended

| Variant | protein stability index |
| --- | --- |
| T6L | 3.1 |
| K12V | 2.68 |
| K12R | 2.02 |
| T6N | 1.68 |
| F1A | 3.81 |
| V23R | 2.71 |
| P19Y | 3.12 |
| E3K | 1.45 |
| M8I | 1.33 |
| P19M | 1.4 |
| S20I | 2.54 |
| H2N | 2.93 |
| P19G | 2 |
| R16Q | 1.85 |
| T11P | 2.28 |
| K22Q | 1.79 |
| R15H | 2.14 |
| P19A | 2 |
| E7T | 1.87 |
| I10F | 3.28 |
| R16C | 1.59 |
| Y21G | 2.51 |
| R16F | 2.31 |
| Y21E | 2.92 |

| Variant | protein stability index |
| --- | --- |
| G14A | 2.6 |
| H2C | 1.72 |
| K24L | 1.99 |
| G5H | 1.92 |
| V23K | 2.24 |
| P19D | 2.2 |
| G14S | 1.83 |
| F1T | 3.13 |
| M17A | 2.38 |
| V4L | 2.09 |
| I10R | 2.21 |
| E7S | 1.66 |
| Y21L | 2.15 |
| F18V | 2.01 |
| H2T | 1.85 |
| M8Y | 1.87 |
| G14R | 1.64 |
| T6K | 2.23 |
| K24N | 1.08 |
| Y21N | 2.55 |
| V4D | 2.48 |
| I9Y | 1.8 |
| V23W | 2.2 |
| K22A | 1.97 |

| Variant | protein stability index |
| --- | --- |
| M8S | 2.34 |
| H2A | 2.04 |
| F18S | 2.41 |
| G5D | 2.58 |
| M17F | 2 |
| F1I | 2.44 |
| G5A | 2.44 |
| E7M | 1.49 |
| E3A | 1.87 |
| P19R | 2.89 |
| T6E | 3.65 |
| P19V | 1.77 |
| M8W | 2.07 |
| T6R | 1.62 |
| R16L | 2.09 |
| E7L | 1.93 |
| A13F | 1.97 |
| M17D | 2.28 |
| M8P | 2.08 |
| A13M | 1.3 |
| F1Y | 2.55 |
| A13Y | 1.55 |
| A13D | 2.57 |
| V4K | 1.98 |

| Variant | protein stability index |
| --- | --- |
| V23G | 2.9 |
| E3P | 2.42 |
| F18P | 2.11 |
| G5Y | 1.49 |
| E7C | 2.07 |
| K12I | 1.6 |
| H2E | 3.09 |
| A13L | 2.61 |
| K24M | 2.55 |
| T6H | 2.01 |
| Y21P | 2.13 |
| M8L | 1.66 |
| V4Y | 2.46 |
| I10E | 2.66 |
| G5S | 2.76 |
| G5I | 3.47 |
| P19I | 2.23 |
| S20Y | 2.84 |
| S20P | 2.42 |
| A13N | 2.27 |
| K24I | 1.54 |
| E7A | 2.82 |
| T11L | 2.14 |
| T11Q | 1.88 |
